US20180155451A1 (published 2018)

T1: FcγRIIb (human, UniProt P31994 43-217)
T1 construct: extracellular domain; Soluble extracellular domain with C-terminal His tag, used as analyte in Biacore; also called FcgRIIb; 2b; not shown: His tag attached to the C terminus
T1 sequence (looked up): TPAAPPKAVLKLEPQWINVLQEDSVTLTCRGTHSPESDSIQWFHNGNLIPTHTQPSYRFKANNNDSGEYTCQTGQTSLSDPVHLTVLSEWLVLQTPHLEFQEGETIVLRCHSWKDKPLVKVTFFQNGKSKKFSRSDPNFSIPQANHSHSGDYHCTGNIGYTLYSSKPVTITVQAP

T2: FcγRIIa H (FcγRIIa, type H allotype, His at position 131), extracellular domain with C-terminal His tag (human, UniProt P12318 34-217)
T2 construct: extracellular domain; Soluble receptor expressed in FreeStyle293 cells; analyte in Biacore; also called FcgRIIa H; 2aH; not shown: C-terminal His tag
T2 sequence (looked up): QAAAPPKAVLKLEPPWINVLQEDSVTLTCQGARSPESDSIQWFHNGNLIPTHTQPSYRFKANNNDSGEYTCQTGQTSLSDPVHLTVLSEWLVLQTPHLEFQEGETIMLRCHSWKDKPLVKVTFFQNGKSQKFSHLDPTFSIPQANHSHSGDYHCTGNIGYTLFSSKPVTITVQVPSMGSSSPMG

T3: FcγRIIb, extracellular domain with C-terminal His tag (human, UniProt P31994 43-217)
T3 construct: extracellular domain; Soluble receptor expressed in FreeStyle293 cells; analyte in Biacore; also called FcgRIIb; 2b; not shown: C-terminal His tag
T3 sequence (looked up): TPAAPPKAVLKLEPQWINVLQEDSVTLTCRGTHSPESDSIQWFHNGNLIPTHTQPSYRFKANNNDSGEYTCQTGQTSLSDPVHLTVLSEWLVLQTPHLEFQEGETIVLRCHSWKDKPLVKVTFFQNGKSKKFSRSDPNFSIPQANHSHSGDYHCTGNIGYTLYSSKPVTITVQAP


Legend:
FcγRIIb = target: T1, FcγRIIb; test: SPR (Biacore), antibody captured on antigen peptide, FcγR as analyte; relative to GpH7-A5/GpH7-B3/GpL16-k0 = 100
FcγRIa = target: T4, FcγRIa (human, UniProt P12314 16-292); test: as above
T4 construct: extracellular domain; Soluble extracellular domain with C-terminal His tag, used as analyte in Biacore; also called FcgRI; 1a; not shown: His tag attached to the C terminus
T4 sequence (P12314 16-292): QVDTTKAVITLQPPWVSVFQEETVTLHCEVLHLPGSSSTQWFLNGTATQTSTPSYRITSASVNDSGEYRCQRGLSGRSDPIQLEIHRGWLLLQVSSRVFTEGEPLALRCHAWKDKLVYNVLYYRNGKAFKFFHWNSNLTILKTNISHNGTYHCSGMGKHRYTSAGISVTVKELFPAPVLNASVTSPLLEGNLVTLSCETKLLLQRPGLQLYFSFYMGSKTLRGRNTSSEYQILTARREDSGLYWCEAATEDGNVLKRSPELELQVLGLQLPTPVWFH

[1] = target: T2, FcγRIIa H (FcγRIIa, type H allotype, …); test: SPR (Biacore), captured antibody, FcγR as analyte
[2] = target: T3, FcγRIIb, extracellular domain with …; test: SPR (Biacore), captured antibody, FcγR as analyte
[3] = target: T2, FcγRIIa H (FcγRIIa, type H allotype, …); test: ratio of He/Con_2aH to He/Con_2b (FcγRIIa H over FcγRIIb), SPR

Row | He/Con_2b (FcγRIIb) | He/Con_1a (FcγRIa) | He/Con_2aH [1] | He/Con_2b [2] | He_2aH/2b (IIaH/IIb) [3] | Binder
1 | 101 % of control | 97.1 % of control |  |  |  | GpH7-A5/GpH7-B3 variant N325_01G/GpL16-k0 (antibody, human IgG1, kappa, Heterodimerized IgG1; mutation in the GpH7-B3 H chain only; also called He Ab) heavy 1: not shown heavy 2: not shown light: DIVMTQSPLSLPVTPGEPASISCQASESLVHSNRNTYLHWYLQKPGQSPQLLIYKVSNRFSGVPDRFSGSGSGTDFTLKISRVEAEDVGVYYCSQNTHVPPTFGQGTKVEIERTVAAPSVFIFPPSDEQLKSGTASVVCLLNNFYPREAKVQWKVDNALQSGNSQESVTEQDSKDSTYSLSSTLTLSKADYEKHKVYACEVTHQGLSSPVTKSFNRGEC
2 |  |  | 66.9 relative, GpH7-A5/GpH7-B3/GpL16-k0 = 100 | 51.6 relative, GpH7-A5/GpH7-B3/GpL16-k0 = 100 | 1.3 | GpH7-A5/GpH7-B3 variant Y300_11K/GpL16-k0 (antibody, human IgG1, kappa, Heterodimerized IgG1; mutation only in the GpH7-B3 chain; also called He Ab) heavy 1: not shown heavy 2: not shown light: DIVMTQSPLSLPVTPGEPASISCQASESLVHSNRNTYLHWYLQKPGQSPQLLIYKVSNRFSGVPDRFSGSGSGTDFTLKISRVEAEDVGVYYCSQNTHVPPTFGQGTKVEIERTVAAPSVFIFPPSDEQLKSGTASVVCLLNNFYPREAKVQWKVDNALQSGNSQESVTEQDSKDSTYSLSSTLTLSKADYEKHKVYACEVTHQGLSSPVTKSFNRGEC
3 | 118 % of control | 97.1 % of control |  |  |  | GpH7-A5/GpH7-B3 variant L235_04F/GpL16-k0 (antibody, human IgG1, kappa, Heterodimerized IgG1; mutation in the GpH7-B3 H chain only; also called He Ab) heavy 1: not shown heavy 2: not shown light: DIVMTQSPLSLPVTPGEPASISCQASESLVHSNRNTYLHWYLQKPGQSPQLLIYKVSNRFSGVPDRFSGSGSGTDFTLKISRVEAEDVGVYYCSQNTHVPPTFGQGTKVEIERTVAAPSVFIFPPSDEQLKSGTASVVCLLNNFYPREAKVQWKVDNALQSGNSQESVTEQDSKDSTYSLSSTLTLSKADYEKHKVYACEVTHQGLSSPVTKSFNRGEC
4 | 111 % of control | 95.6 % of control |  |  |  | GpH7-A5/GpH7-B3 variant N325_03V/GpL16-k0 (antibody, human IgG1, kappa, Heterodimerized IgG1; mutation in the GpH7-B3 H chain only; also called He Ab) heavy 1: not shown heavy 2: not shown light: DIVMTQSPLSLPVTPGEPASISCQASESLVHSNRNTYLHWYLQKPGQSPQLLIYKVSNRFSGVPDRFSGSGSGTDFTLKISRVEAEDVGVYYCSQNTHVPPTFGQGTKVEIERTVAAPSVFIFPPSDEQLKSGTASVVCLLNNFYPREAKVQWKVDNALQSGNSQESVTEQDSKDSTYSLSSTLTLSKADYEKHKVYACEVTHQGLSSPVTKSFNRGEC
5 | 123 % of control | 99.9 % of control |  |  |  | GpH7-A5/GpH7-B3 variant P238_20W/GpL16-k0 (antibody, human IgG1, kappa, Heterodimerized IgG1; mutation in the GpH7-B3 H chain only; also called He Ab) heavy 1: not shown heavy 2: not shown light: DIVMTQSPLSLPVTPGEPASISCQASESLVHSNRNTYLHWYLQKPGQSPQLLIYKVSNRFSGVPDRFSGSGSGTDFTLKISRVEAEDVGVYYCSQNTHVPPTFGQGTKVEIERTVAAPSVFIFPPSDEQLKSGTASVVCLLNNFYPREAKVQWKVDNALQSGNSQESVTEQDSKDSTYSLSSTLTLSKADYEKHKVYACEVTHQGLSSPVTKSFNRGEC
6 | 108 % of control | 95.9 % of control |  |  |  | GpH7-A5/GpH7-B3 variant S239_03V/GpL16-k0 (antibody, human IgG1, kappa, Heterodimerized IgG1; mutation in the GpH7-B3 H chain only; also called He Ab) heavy 1: not shown heavy 2: not shown light: DIVMTQSPLSLPVTPGEPASISCQASESLVHSNRNTYLHWYLQKPGQSPQLLIYKVSNRFSGVPDRFSGSGSGTDFTLKISRVEAEDVGVYYCSQNTHVPPTFGQGTKVEIERTVAAPSVFIFPPSDEQLKSGTASVVCLLNNFYPREAKVQWKVDNALQSGNSQESVTEQDSKDSTYSLSSTLTLSKADYEKHKVYACEVTHQGLSSPVTKSFNRGEC
7 | 110 % of control | 93.7 % of control |  |  |  | GpH7-A5/GpH7-B3 variant G236_10E/GpL16-k0 (antibody, human IgG1, kappa, Heterodimerized IgG1; mutation in the GpH7-B3 H chain only; also called He Ab) heavy 1: not shown heavy 2: not shown light: DIVMTQSPLSLPVTPGEPASISCQASESLVHSNRNTYLHWYLQKPGQSPQLLIYKVSNRFSGVPDRFSGSGSGTDFTLKISRVEAEDVGVYYCSQNTHVPPTFGQGTKVEIERTVAAPSVFIFPPSDEQLKSGTASVVCLLNNFYPREAKVQWKVDNALQSGNSQESVTEQDSKDSTYSLSSTLTLSKADYEKHKVYACEVTHQGLSSPVTKSFNRGEC
8 | 197 % of control | 97.5 % of control |  |  |  | GpH7-A5/GpH7-B3 variant N325_08L/GpL16-k0 (antibody, human IgG1, kappa, Heterodimerized IgG1; mutation in the GpH7-B3 H chain only; also called He Ab) heavy 1: not shown heavy 2: not shown light: DIVMTQSPLSLPVTPGEPASISCQASESLVHSNRNTYLHWYLQKPGQSPQLLIYKVSNRFSGVPDRFSGSGSGTDFTLKISRVEAEDVGVYYCSQNTHVPPTFGQGTKVEIERTVAAPSVFIFPPSDEQLKSGTASVVCLLNNFYPREAKVQWKVDNALQSGNSQESVTEQDSKDSTYSLSSTLTLSKADYEKHKVYACEVTHQGLSSPVTKSFNRGEC
9 | 114 % of control | 98.6 % of control |  |  |  | GpH7-A5/GpH7-B3 variant L234_20W/GpL16-k0 (antibody, human IgG1, kappa, Heterodimerized IgG1; mutation in the GpH7-B3 H chain only; also called He Ab) heavy 1: not shown heavy 2: not shown light: DIVMTQSPLSLPVTPGEPASISCQASESLVHSNRNTYLHWYLQKPGQSPQLLIYKVSNRFSGVPDRFSGSGSGTDFTLKISRVEAEDVGVYYCSQNTHVPPTFGQGTKVEIERTVAAPSVFIFPPSDEQLKSGTASVVCLLNNFYPREAKVQWKVDNALQSGNSQESVTEQDSKDSTYSLSSTLTLSKADYEKHKVYACEVTHQGLSSPVTKSFNRGEC
